Assay results published in patent US20250034594A1, “RNA-GUIDED GENOME RECOMBINEERING AT KILOBASE SCALE” (THE BOARD OF TRUSTEES OF THE LELAND STANFORD JUNIOR …, priority 2021, published 2025).
Read-outs that look alike come from different tables or passages of the source.

Columns and labels:
Type in all cases: cell-based
[1] = test system: endogenous genome targets (ACTB, HSP90AA1); assay: Arrayed SSAP library screening, mKate knock-in assay (editing efficiency); conditions: average of HSP90 and ACTB, 3 days after transfection; for Editing Efficiency (Normalized, Average, two targets): fold over negative control (Flag_HA); for Editing Efficiency (Absolute, Average, two targets): percent of mKate knock-in
Method in brief: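 Mammalian cells in duplicate were transfected with SSAP-encoding plasmids, with about 50% transfection efficiency. mKate knock-in positive cells and viability, by flow-cytometric live counts, were quantified three days later. RecT SSAP served as positive control and Flag-HA plasmid as negative control.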

gene editing with Cas9 = assay: Screen of 322 new SSAP proteins, gene editing activity with Cas9 (Table 5); parameters: Cas9 with SSAP activity: scale not given here
Method in brief: (§1)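 First, 322 new single-strand annealing proteins are identified from sequences. Next they are synthesized. Finally each is assayed for editing in combination with Cas9 and, separately, dCas9.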

[2] = test system: gene editing with Cas9 and dCas9; assay: Screen of 322 new SSAP proteins, activity across all experiments (Cas9 and dCas9, Table 5); parameters: scale not given here
Method in brief: as §1

mammalian cells = assay: Arrayed SSAP library screening, cell viability by live cell counts via flow cytometry
Method in brief: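 Each SSAP plasmid transfected in duplicate (~50% efficiency), with RecT SSAP as positive and Flag-HA as negative control. After three days, mKate-positive cells and viability by flow-cytometric live cell counts were quantified to gauge SSAP fitness effects.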

gene editing with dCas9 = assay: Screen of 322 new SSAP proteins, gene editing activity with dCas9 (Table 5); parameters: dCas9 with SSAP activity: scale not given here
Method in brief: as §1

Molecule | Editing Efficiency (Normalized, Average, two targets) [1] | Editing Efficiency (Absolute, Average, two targets) [1] | Cas9 with SSAP activity (gene editing with Cas9) | Cas9 with SSAP activity (normalized) (gene editing with Cas9) | Activity across all experiments [2] | Cell Viability (Average, two targets) (mammalian cells; live cell counts via flow cytometry, average of HSP90 and ACTB) | dCas9 with SSAP activity (gene editing with dCas9) | dCas9 with SSAP activity (normalized) (gene editing with dCas9) | Cell Viability (Average, two targets) (mammalian cells)
SSAP_199: SEQ ID NO: 368; uncultured Mediterranean phage uvMED (protein, uncultured Mediterranean phage uvMED) TSSITPLVAMQGTLEKMADKFTEALPRQMDVNKFISVAKLTLNKNPRLLQADKTSLMQTFMKAAQDGLYLDGKEAAAVQYGQSVQYIPMVEGIIKVLHNSGLIKTISAEVVYENDFFDYELGTAPKITHKPLIVGDRGKPMCVYAVAITTNDGEYYEVMNMDQINQCRQVSKASSSPHSPWVKWFDQMAKKTVIHRIAKRLPKNDAINSVVTVDDEPNFQQAVNVTPSEPKDSLSRLRDSIGMEGKDVEQAANDLLEKYNKEAREE | 4.602 | 11.4025 | −7.274 | −1.400 | −4.877 | 0.5186 | −2.480 | −0.364 | –
SSAP_194: SEQ ID NO: 363; Streptomyces sp. CS014 (protein, listed as Streptomyces sp.) TENTVTAAVAVRDTGPAAQIEAYRDEYAALVPSHINADQWVRLAVGAIRGNEDLTNAARTDIGVFLRELKTAARLGLEPGTEQFYLTPRKSKAHRGQKIIKGIVGYQGIIELIYRAGAVSSVIVESVRANDTFRYVIGRDERPVHEIDWFGGDRGDLVGVYAYATMKDGATSKVVVLNHAQVMQIRAKSDSKHSEYSPWNTNPESMWLKSAVRQLMKWVPTSAEYMREQLRAQAEVAAEQPPAADLPPMPSVELNDEDEAVDAELVDEEA | 4.924 | 12.175 | 2.727 | 3.516 | −3.031 | – | −8.790 | – | 1.139
SSAP_229: SEQ ID NO: 398; Amycolatopsis sp. CB00013 (protein, listed as Amycolatopsis sp.) TTQTVTSAVAQQDSSPAALVRKYRTDFATVLPSHIKPETWLRIATGALRRSSQLAHAAEKNPTSLLVALLDAARKGLEPGTEQYYLVPRKTKRGPEVLGITGYQGEVELMYRAGAVSSVKVEGVREHDTFAYNPGEHDRPVHEINWRANRGDLVLAYAYAYAKMRDGATSNVSVLSADDIAVILSKAEGADSPFSPWQWNPKAMWLKSAAHQLAKWVPTSAERVWQPDGPPLEAPPATPVTLPTVEDVVDAEVVEDWPTTPADTADSEQ | 3.971 | 9.8525 | −2.969 | −0.509 | −6.122 | – | −9.275 | – | 0.8776
SSAP_15: SEQ ID NO: 184 (protein) AKNELAKGSYLTDLQKLDGNTLRDFVDPKHQASPQELQALLAIVKGRNLNPFTKEVYFIKYGSAPAQIVVSKEAIMKRAEENPDFDGFEAGIVVETKDGAIERLTGTIVPKSATLRGGWCKVYRKDRSHAIEADADFAYYTTSKNLWQKMPALMIRKVAIVSAFREAFSESVGGLYTADEMQRETQAEVRARKMKEAYEEKLYLLTQMEAKSYKKTKSKNENEAKKTKEAEAIETVEEPTQDGNLEW | 5.477 | 13.55 | −1.876 | −0.850 | −1.288 | – | −0.701 | −2.250 | 1.226
SSAP_36: SEQ ID NO: 205 (protein) SSIAAAAESAEVTPASIINKYRDDIATVLPPKLRERIDRWIRLAIGAVNSNPELISRVRADQGASMMQALMKCAALGHEPGSGLFHLVPKGSRIEGWEDYKGILQRIDRSGVYARTVIGVVYANDEYSYDQNVDERPRHVRATGDRGEPISSYAYAVYPSGAITTVAEATPEQIASSKSKARGADNAASPWRAPGAPMHRKVAVRLLEKHVATSAEDRREPISRSAANDVVIDATADYYQEP | 6.383 | 15.8 | −4.118 | −0.619 | −6.514 | – | −8.909 | −1.787 | 0.9418
SSAP_4: SEQ ID NO: 166 (protein, Lambda) MSTALATLAGKLAERVGMDSVDPQELITTLRQTAFKGDASDAQFIALLIVANQYGLNPWTKEIYAFPDKQNGIVPVVGVDGWSRIINENQQFDGMDFEQDNESCTCRIYRKDRNHPICVTEWMDECRREPFKTREGREITGPWQSHPKRMLRHKAMIQCARLAFGFAGIYDKDEAERIVENTAYTAERQPERDITPVNDETMQEINTLLIALDKTWDDDLLPLCSQIFRRDIRASSELTQAEAVKALGFLKQKAAEQKVAA | 5.57 | 13.8 | −2.882 | −0.474 | −4.940 | – | −6.997 | −1.447 | 1.192
SSAP_221: SEQ ID NO: 390; Streptomyces sp. 351MFTsu5.1 (protein, listed as Streptomyces sp.) SQISNAIEKRDQGPGAVIEQYKQELALVAASHVKVDTFARLAVGALRQNPKLAAAAQSNPGSLMSALMTAARLGLEPGTEQFYLRPIKRKGVAEVQGIVGYQGIVELIYNAGAASSVVVEVVRANDQFNYVPGLHERPVHNVDWFGDRGDLVGVYAYAVMAGGATSKVVVLSRTHINRAKAKSDGADSDYSPWRTDEEAMWLKTAARRLGKWVPTSAERLTMPAERTDTVLPVGSAAPALDAADPDEDEGPVDGELEPAGGWPETAQPPQ | 4.587 | 11.35 | −4.494 | −0.728 | −6.275 | – | −8.056 | – | 0.9772
SSAP_309: SEQ ID NO: 478; Paenibacillus sp. FSL R7-0333 (protein, listed as Paenibacillus sp.) TVAIELQVQETLDRILDSKHDALPSDFNKKRFSENCKAYVADEKDLHKYSPEEIAANLFKGAVLGLDFLAKECHLISGGVELKFQTDYKGEMKLTKKYSVRPLLDVYAKNVREGDEFREEVIEGRPVIHFAPLPFNASSIIGSFAVALFQDGGMVYESIPAGEIEEIRKNYGKSLGDAWDKSQGEMYKRTVLRRLCKTIETDFDAEQRLIYDAGGAFEFTKQPARSRQQSPFNPPEESEVTQDDRVAETDQG | 3.992 | 9.885 | −3.975 | −1.807 | −6.697 | – | −9.420 | −2.412 | 0.9224
SSAP_12: SEQ ID NO: 181 (protein) STALATLAGKLAERVGMDSVDPQELITTLRQTAFKGDASDAQFIALLIVANQYGLNPWTKEIYAFPDKQNGIVPVVGVDGWSRIINENQQFDGMDFEQDNESCTCRIYRKDRNHPICVTEWMDECRREPFKTREGREITGPWQSHPKRMLRHKAMIQCARLAFGFAGIYDKDEAERIVENTAYTAERQPERDITPVNDETMQEINTLLIALDKTWDDDLLPLCSQIFRRDIRASSELTQAEAVKALGFLKQKASEQKVAA | 4.263 | 10.5525 | −7.814 | −1.324 | −7.690 | – | −7.567 | −1.196 | 1.291
